Patent US9192622B2, “MicroRNA-130a,b as a tumor suppressor and sensitizing agent for chemotherapy” (University of Houston, priority 2011, dated 2015)

Assays:
[1] = system: HeyA8 cells; experiment: Cisplatin dose-response, MTS viability with or without miR-130b; type: cell-based, human; settings: 72 hours
Method: FIGS. 4A-4B: Impact of miR-130b on Cisplatin Dose-Response Curves. Cisplatin treated HeyA8 cells with either miR-130b or a negative control proliferation and apoptosis assays were measured 72 hours following treatment with cisplatin at the indicated concentrations. The assays were measured using MTS (FIG. 4A) and Caspase-Glo 3/7 (FIG. 4B) assays. The IC50 (concentration needed to reach 50% viability) values are shown beside the MTA graph. To assess the impact of miR-130b on cisplatin treatment, HEYA8 cells transfected with pmiR-130b, Negative control or nothing at a density of 2500 cells/well. Cells were treated with cisplatin across a range of concentrations from 0-10 μg/mL. After 72 hours, cells were assayed for growth and apoptosis activity using MTS and Caspase 3/7 assays from Promega as described before. Each sample was normalized to the parental non treated sample. Refractory disease that results from resistance to chemotherapy is a major problem for many ovarian cancer patients. The chemotherapy drug, cisplatin, works by intercalating the genomic DNA of tumor cells causing massive DNA damage that in turn causes the cells to undergo apoptosis or programmed cell […] et al. 2003). […] Seventy-two hours following cisplatin treatment, proliferation and caspase activity were measured using the same MTS and Caspase 3/7 assays used previously.

[2] = system: p63/p53/p73 network genes in HeyA8 cells; experiment: qPCR gene expression after p53 siRNA with and without miR-130b; type: cell-based, human; settings: HeyA8, siRNA to p53, 72 hrs post-transfection
Description: FIGS. 6A-6B: Impact of siRNA against p53 on miR-130b-regulated patterns of gene expression. Since many of the up regulated genes that were induced by miR-130b were also downstream transcriptional targets of p53, transient, siRNA knockdown of p53 was used with and without miR-130b present in HeyA8 (FIG. 6A) and OVCAR8 (FIG. 6B) cells and used qPCR to measure our gene set again with respect to p53. The goal was to dissect the p53-dependent and independent impacts of miR-130b in the p53-wild type HeyA8.
For gene expression analysis of target genes, 75 ng of total RNA from each sample was reverse transcribed using the qScript cDNA Super mix from Quanta Biosciences (95048). All RT-qPCR was carried out with the Veriti OneStep from Applied Biosystems. All qPCR experiments used the […] and Power SYBR Green Master Mix (Applied Biosystems). 18S was used as the endogenous control for all targets.
To determine the role of p53 in miR-130b gene regulation the HEYA and OVCAR8 cell lines were co-transfected with miR-130b and p53 siRNA (IDT_HSC.RNAI.N000546.12.2, 5′-rGrGrA rUrUrU rCrArU rCrUrC rUrUrG rUrArU rArUrGr A-3′, SEQ ID NO: 27), 5′-rUrCrA rUrCrA rUrArU rArCrA rArGrA rGrArU rGrArA rArUrC rCrUrC-3′, SEQ ID NO: 28) 72 hrs post-transfection gene expression was assayed by Q-PCR as described before.
To determine which of these gene expression changes are dependent on p53 patterns of gene expression in miR-130b over-expressing HeyA8 cells were compared in the presence of a siRNA to p53 (siP53).

N.N.[Cl][Pt][Cl] [cisplatin]
cisplatin IC50 (concentration needed to reach 50% viability) ([1]; HeyA8 with miR-130b): ~9.9 µg/mL | cisplatin IC50 (concentration needed to reach 50% viability) ([1]; HeyA8 with negative miRNA control (NC)): ~18.3 µg/mL

B1: siP53: siRNA to p53 (SEQ ID NO: 27 and 28) (nucleic acid)
chain 1: RGRGRARURURURCRARURCRURCRURURGRURARURARURGR
chain 2: RURCRARURCRARURARURARCRARARGRARGRARURGRARARARURCRCRURC
modifications: listed as RNA, chemistry not fully specified
MDM2 expression level [2]: down-regulated | RB1 expression level [2]: up-regulated | p21 expression level [2]: down-regulated | p53 expression level [2]: down-regulated
